Measurements published in patent US20110053840A1 (MERCK SERONO S A, published 2011).
One block for each binder: values may come before it.

Target: T1, HLA-DR2b molecules purified from L cells co-transfected with HLA-DRA and HLA-DRB1*1501 (human)
T1 construct: also called purified DR2b molecules
Experiment: competitive ELISA (DELFIA) on purified HLA-DR2b, displacement of biotinylated CLIP 97-120
From the text: DR2b molecules were purified from L cells that had been co-transfected with HLA-DRA and HLA-DRB1*1501, by affinity chromatography using the HLA-DR-specific L243 antibody, as described in Weissert et al. (2001), MHC class II-regulated central nervous system autoaggression and T cell responses in peripheral lymphoid tissues are dissociated in myelin oligodendrocyte glycoprotein-induced experimental autoimmune encephalomyelitits, J. Immunol. […] The above publication is incorporated into the present application by reference. The binding assays were performed with a competitive ELISA based on a dissociation-enhanced lanthanide fluoroimmunoassay (Wallac, Turku, Finland). For the competitive ELISA, a 50 nM solution of DR2b molecules was incubated for 48 hours at 37° C. with 50 nM biotinylated CLIP 97-120 in the presence of 250 nM acetylated nonapeptide amide sublibrary or with various concentrations of competitor peptides ranging from 1 nM to 100 μM.
The affinity of each of these peptides for the HLA-DR2b molecule was measured using the ELISA.

B1: HuPb28 (peptide)
peptide: Ac-MLIYYSSYL-NH2
notes: acetylated nonapeptide amide; also called HuPb28 peptide
- IC50: < 1 nM

B3: HuPb23 (peptide)
peptide: Ac-LILYYYYYL-NH2
notes: acetylated nonapeptide amide
- IC50: 154 nM

B4: HuPb34 (peptide)
peptide: Ac-MIDWYSSWP-NH2
notes: acetylated nonapeptide amide
- IC50: 1 nM

B5: HuPb15 (peptide)
peptide: Ac-GPLPEHELL-NH2
notes: acetylated nonapeptide amide
- IC50: 46700 nM

B6: HuPb20 (peptide)
peptide: Ac-MIYWYSSWL-NH2
notes: acetylated nonapeptide amide
- IC50: 1 nM

B7: HuPb33 (peptide)
peptide: Ac-MIYWYSSWD-NH2
notes: acetylated nonapeptide amide
- IC50: 1 nM

B9: HuPb22 (peptide)
peptide: Ac-LIYWYSSWL-NH2
notes: acetylated nonapeptide amide
- IC50: 2 nM

B10: HuPb30 (peptide)
peptide: Ac-MIYWYSNWL-NH2
notes: acetylated nonapeptide amide
- IC50: < 1 nM

B11: HuPb21 (peptide)
peptide: Ac-MIYWYSSWI-NH2
notes: acetylated nonapeptide amide
- IC50: 1 nM

B13: HuPb24 (peptide)
peptide: Ac-LILWYSSWL-NH2
notes: acetylated nonapeptide amide
- IC50: 2 nM

B15: HuPb18 (peptide)
peptide: Ac-GSLPRHLFR-NH2
notes: acetylated nonapeptide amide
- IC50: 43800 nM

B19: HuPb19 (peptide)
peptide: Ac-GPPERLEFR-NH2
notes: acetylated nonapeptide amide
- IC50: > 100000 nM

Further lines, results first:

- IC50: 33900 nM
B2: HuPb10 (peptide)
peptide: Ac-WPLPLLEER-NH2
notes: acetylated nonapeptide amide

- IC50: < 1 nM
B8: HuPb31 (peptide)
peptide: Ac-MIYWYNSWL-NH2
notes: acetylated nonapeptide amide

- IC50: 1 nM
B12: HuPb26 (peptide)
peptide: Ac-LILWYSSWP-NH2
notes: acetylated nonapeptide amide

- IC50: < 1 nM
B14: HuPb27 (peptide)
peptide: Ac-LLYWYSSWP-NH2
notes: acetylated nonapeptide amide

- IC50: > 100000 nM
B16: HuPb14 (peptide)
peptide: Ac-PYEAQELHE-NH2
notes: acetylated nonapeptide amide

- IC50: 2 nM
B17: HuPb29 (peptide)
peptide: Ac-FILIYSNLF-NH2
notes: acetylated nonapeptide amide

- IC50: > 100000 nM
B18: HuPb17 (peptide)
peptide: Ac-KGESGFRDR-NH2
notes: acetylated nonapeptide amide

- IC50: > 100000 nM
B20: HuPb11 (peptide)
peptide: Ac-WGLPEHLER-NH2
notes: acetylated nonapeptide amide

- IC50: < 1 nM
B21: HuPb32 (peptide)
peptide: Ac-DIYWYSSWP-NH2
notes: acetylated nonapeptide amide
